The values below come from patent US20160002338A1 (Hoffmann-La Roche, published 2016).

The target of assay [1] is T1, human recombinant HER3 ECD (human, UniProt P21860 20-643).
T1 construct: 68 kDa; also called human-Her3-ECD; full length Her3 ECD
Nature of the assay: SPR Biacore 3000, 37 C.

Assay [2] deals with T2, HER3 ECD-HRG complex (human, UniProt P21860 20-643).
T2 construct: also called Heregulin/Her-3 ECD
Nature of the assay: SPR Biacore 3000, 37 C. On the technique in general: In SPR one partner is held on a chip, and binding of the other changes the refractive index at the surface.

For assay [3], the target named is T3, HER4 ECD-HRG complex (human, UniProt Q15303 26-651).
T3 construct: HER4 ECD preincubated with a 5-fold molar excess of Heregulin; also called HER-4-ECD-RG
T3 sequence 1: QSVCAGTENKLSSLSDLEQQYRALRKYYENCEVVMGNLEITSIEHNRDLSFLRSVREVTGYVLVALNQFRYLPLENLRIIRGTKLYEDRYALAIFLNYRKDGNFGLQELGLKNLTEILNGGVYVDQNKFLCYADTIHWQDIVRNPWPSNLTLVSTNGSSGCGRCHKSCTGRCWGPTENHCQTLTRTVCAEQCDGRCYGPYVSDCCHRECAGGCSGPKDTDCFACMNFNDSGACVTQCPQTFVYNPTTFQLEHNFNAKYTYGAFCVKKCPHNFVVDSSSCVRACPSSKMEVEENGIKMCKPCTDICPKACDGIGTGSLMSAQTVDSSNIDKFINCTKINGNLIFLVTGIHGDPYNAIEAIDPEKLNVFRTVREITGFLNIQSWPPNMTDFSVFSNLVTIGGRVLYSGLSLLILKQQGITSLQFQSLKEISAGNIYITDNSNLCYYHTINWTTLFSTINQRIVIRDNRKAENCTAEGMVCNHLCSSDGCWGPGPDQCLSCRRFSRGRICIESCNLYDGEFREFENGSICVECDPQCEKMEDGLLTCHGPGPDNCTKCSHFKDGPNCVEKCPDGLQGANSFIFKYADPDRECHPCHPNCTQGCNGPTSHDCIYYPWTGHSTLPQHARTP
T3 sequence 2: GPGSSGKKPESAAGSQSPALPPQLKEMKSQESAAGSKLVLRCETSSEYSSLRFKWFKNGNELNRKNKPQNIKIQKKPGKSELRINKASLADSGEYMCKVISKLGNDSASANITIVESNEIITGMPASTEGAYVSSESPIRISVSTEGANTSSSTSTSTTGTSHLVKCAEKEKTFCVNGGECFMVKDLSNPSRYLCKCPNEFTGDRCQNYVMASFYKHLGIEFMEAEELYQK
Nature of the assay: SPR Biacore 3000, 37 C.

Assay [4] deals with T4, HER3 ECD binding epitope peptide VYNKLTFQLEP (human).
T4 construct: the spotted peptides were longer
T4 peptide: VYNKLTFQLEP
Nature of the assay: CelluSpots peptide array, 1 µg/mL antibody.

Assay [5] concerns the target T5, HER4 ECD binding epitope peptide VYNPTTFQLE (human).
T5 construct: the spotted peptides were longer
T5 peptide: VYNPTTFQLE
Nature of the assay: CelluSpots peptide array, 1 µg/mL antibody.

In assay [6] the target is T1, human recombinant HER3 ECD. Briefly: SPR Biacore T100, antibody captured, 25 C. On the procedure:
(§1) A CM5 series sensor was mounted into the system and was normalized in HBS-ET buffer (10 mM HEPES pH 7.4, 150 mM NaCl, 3 mM EDTA, 0.005% w/v Tween 20) according to the manufacturer's instructions. The sample buffer was the system buffer supplemented with 1 mg/ml CMD (Carboxymethyldextran, Sigma #86524). The system operated at 25° C. 6500 RU RAM-Fcγ (relative units of Fcγ-fragment RamIgG, GE Healthcare) were immobilized according to the manufacturer's instructions using EDC/NHS chemistry on all four flow cells. The sensor was deactivated using 1M ethanolamine.
(§2) Analytes in solution were injected at different concentration steps of 0 nM, 1.1 nM, 3.7 nM, 11.1 nM, 33.1 nM and 90 nM for 3.5 min. The dissociation was monitored for 15 min. Where possible, kinetic signatures were evaluated according to a Langmuir fit.

The target in assay [7] is T6, human recombinant HER4 ECD (human, UniProt Q15303 26-651).
T6 construct: also called full length Her4 ECD
T6 sequence: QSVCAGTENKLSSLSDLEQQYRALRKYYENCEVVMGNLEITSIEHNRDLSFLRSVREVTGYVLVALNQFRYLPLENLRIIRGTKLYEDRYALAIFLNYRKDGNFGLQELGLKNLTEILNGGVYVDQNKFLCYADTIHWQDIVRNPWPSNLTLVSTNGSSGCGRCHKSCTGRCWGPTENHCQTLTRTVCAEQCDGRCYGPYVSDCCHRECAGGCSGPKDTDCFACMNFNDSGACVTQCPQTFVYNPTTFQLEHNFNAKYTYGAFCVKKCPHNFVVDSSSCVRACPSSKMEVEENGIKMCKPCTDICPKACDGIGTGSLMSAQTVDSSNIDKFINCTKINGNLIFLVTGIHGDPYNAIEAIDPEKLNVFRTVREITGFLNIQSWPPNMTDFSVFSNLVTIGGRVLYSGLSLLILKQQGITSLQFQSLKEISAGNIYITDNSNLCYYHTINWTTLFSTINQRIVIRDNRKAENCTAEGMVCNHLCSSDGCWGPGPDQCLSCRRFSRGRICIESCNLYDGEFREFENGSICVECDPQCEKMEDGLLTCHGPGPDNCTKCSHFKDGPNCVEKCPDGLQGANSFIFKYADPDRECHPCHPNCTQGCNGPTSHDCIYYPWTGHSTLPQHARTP
Nature of the assay: SPR Biacore T100, antibody captured, 25 C. As for the experimental part:
as §1, §2

Assay [8] deals with T7, human recombinant HER2 ECD (human, UniProt P04626 23-652).
T7 construct: 69.6 kDa
Nature of the assay: SPR Biacore T100, antibody captured, 25 C. On the procedure:
as §1, §2

The target in assay [9] is T8, human Heregulin fragment (HRG) (human).
T8 construct: also called Heregulin beta (HRG)
T8 chain: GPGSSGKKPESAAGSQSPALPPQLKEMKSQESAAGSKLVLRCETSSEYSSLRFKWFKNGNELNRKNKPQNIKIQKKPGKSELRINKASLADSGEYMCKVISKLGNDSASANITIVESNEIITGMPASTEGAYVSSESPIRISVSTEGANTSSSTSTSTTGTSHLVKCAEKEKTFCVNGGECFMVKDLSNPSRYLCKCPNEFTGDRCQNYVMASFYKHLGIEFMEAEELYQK
Nature of the assay: SPR Biacore T100, antibody captured, 25 C. As for the experimental part: as §1, §2

Assay [10] concerns the target T2, HER3 ECD-HRG complex. Briefly: SPR Biacore T100, antibody captured, 25 C. As for the experimental part:
as §1, §2

For assay [11], the target named is T3, HER4 ECD-HRG complex. Briefly: SPR Biacore T100, antibody captured, 25 C. As for the experimental part: as §1, §2

T2 sequence (P21860 20-643 limits assumed, one chain of several): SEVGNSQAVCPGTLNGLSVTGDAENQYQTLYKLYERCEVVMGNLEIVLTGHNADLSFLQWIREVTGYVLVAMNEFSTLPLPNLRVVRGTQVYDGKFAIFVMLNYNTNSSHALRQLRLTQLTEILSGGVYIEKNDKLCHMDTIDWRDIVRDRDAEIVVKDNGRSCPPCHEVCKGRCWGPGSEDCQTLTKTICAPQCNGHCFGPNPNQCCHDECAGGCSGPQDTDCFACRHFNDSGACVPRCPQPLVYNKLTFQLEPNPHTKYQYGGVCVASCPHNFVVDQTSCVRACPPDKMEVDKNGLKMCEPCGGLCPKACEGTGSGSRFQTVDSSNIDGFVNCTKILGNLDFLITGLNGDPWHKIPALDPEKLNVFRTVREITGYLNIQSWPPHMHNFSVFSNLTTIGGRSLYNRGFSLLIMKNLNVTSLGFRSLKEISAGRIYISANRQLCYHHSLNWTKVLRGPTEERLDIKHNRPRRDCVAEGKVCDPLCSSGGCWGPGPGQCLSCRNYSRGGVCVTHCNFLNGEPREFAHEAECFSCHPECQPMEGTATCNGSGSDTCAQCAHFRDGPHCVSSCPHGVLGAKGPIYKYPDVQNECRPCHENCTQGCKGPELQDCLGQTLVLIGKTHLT
T1 sequence (P21860 20-643): as the sequence (P21860 20-643 limits assumed, one chain of several) above

B1: anti-HER3/HER4 antibody M-05-74 (antibody, V domains shown)
VH: QVQLQQSGAELAKPGASVKMSCKTSGYTLTDYWIHWVKQRPGQGLEWIGYINPYTGYTESNQKFKDKATLTADKSSNTAYIQLSSLTSEDSAVYYCARPYYYGDYWGQGTTLTVSS
VL: QIVLTQSPAIMSASPGERVTITCSASSSVSYMHWFQQKPGTSPKLLIYSTSNLASGVPARFSGSGSGTSYSLTISRMEAEDAATYYCQQRSSYPFTFGSGTKLEIK
notes: murine monoclonal antibody from hybridoma (supernatant or purified); also called M-074; M-5-74
In the case of B1, the “Molar Ratio MR” value in assay [1] is 0.6; in [2] it was 0.7; in assay [3], 0.9; in assay [6], 0.2; in assay [7], 0.1; in assay [10], 0.6. In assay [11], the “Molar Ratio MR” value is 0.6. Moreover, the binding result is listed as “binds” in [4], “binds” in [5], “no binding (tested: 90 nM)” in assay [8] and “no binding (tested: 90 nM)” in [9]. The “Binding Late BL” value turned out to be 70 RU in assay [6], 27 RU in [7], 160 RU in assay [10] and 349 RU in [11]. The figures for the “ratio MR (+Heregulin)/MR (-Heregulin)” value in assay [10] and in [11] were 3 and 6, respectively. The “ratio ka (Her3-ECD-HRG)/ka (Her3-ECD)” value in assay [10] came out at 4.85. The “ratio ka (Her4-ECD-HRG)/ka (Her4-ECD)” value in [11] worked out at 23.9.
